Measured values reported in patent US20170327545A1.

Key:
[1] = molecular target: Purified Dab prepared from heat-treated E. coli supernatant; experiment: dynamic binding capacity at 10% breakthrough, ligand multipoint-coupled to agarose beads (9.5 mg/ml), 1 mg/ml Dab, residence time 4 min
[2] = molecular target: Purified Fab prepared from a papain-digested IgG mAb; experiment: dynamic binding capacity at 10% breakthrough, ligand multipoint-coupled to agarose beads (9.5 mg/ml), 1 mg/ml Fab, residence time 4 min
[3] = molecular target: human polyclonal IgG (Gammanorm) (human); experiment: SPR (Biacore), retained IgG binding capacity after 96 NaOH cycles, ratio to reference Domain 3
[4] = molecular target: human polyclonal IgG (Gammanorm) (human); experiment: SPR (Biacore), ligand amine-coupled to chip, 1 mg/ml human polyclonal IgG flowed; IgG binding signal left after 96 cycles of 10 min 100 mM NaOH
[5] = molecular target: human polyclonal IgG (Gammanorm) (human); experiment: SPR (Biacore), ligand amine-coupled to chip, 1 mg/ml human polyclonal IgG flowed; IgG binding signal left after 96 cycles of 10 min 100 mM NaOH (second run, reference for the Q19 mutants)
[6] = molecular target: human polyclonal IgG (Gammanorm) (human); experiment: SPR (Biacore), retained IgG binding capacity after 96 NaOH cycles, ratio to reference Domain 3 (itself)
[7] = molecular target: human polyclonal IgG (Gammanorm) (human); experiment: SPR (Biacore), retained IgG binding capacity after 96 NaOH cycles, ratio to reference Domain 3 (itself, second run)
[8] = molecular target: human polyclonal IgG (Gammanorm) (human); experiment: SPR (Biacore), ligand amine-coupled to chip, 1 mg/ml human polyclonal IgG flowed; IgG binding signal left after 100 cycles of 10 min 100 mM NaOH
[9] = molecular target: human polyclonal IgG (Gammanorm) (human); experiment: SPR (Biacore), retained IgG binding capacity after 100 NaOH cycles, ratio to reference Protein L (itself)
[10] = molecular target: human polyclonal IgG (Gammanorm) (human); experiment: SPR (Biacore), retained IgG binding capacity after 96 NaOH cycles, ratio to reference Protein L (itself)
[11] = molecular target: Purified Fab prepared from a papain-digested IgG mAb; experiment: dynamic binding capacity at 10% breakthrough, ligand multipoint-coupled to agarose beads (8.8 mg/ml), 1 mg/ml Fab, residence time 4 min
[12] = molecular target: Purified Dab prepared from heat-treated E. coli supernatant; experiment: dynamic binding capacity at 10% breakthrough, ligand multipoint-coupled to agarose beads (8.8 mg/ml), 1 mg/ml Dab, residence time 4 min
[13] = molecular target: Purified Dab prepared from heat-treated E. coli supernatant; experiment: dynamic binding capacity at 10% breakthrough, ligand multipoint-coupled to agarose beads (11.0 mg/ml), 1 mg/ml Dab, residence time 4 min
[14] = molecular target: Purified Fab prepared from a papain-digested IgG mAb; experiment: dynamic binding capacity at 10% breakthrough, ligand multipoint-coupled to agarose beads (11.0 mg/ml), 1 mg/ml Fab, residence time 4 min

B1: D3(N10Q, N45A, N60Q)2 (designed binder)
chain: PKEEVTIKAQLIYADGKTQTAEFKGTFEEATAEAYRYADLLAKEAGKYTVDVADKGYTLQIKFAGKEKTPEEPKEEVTIKAQLIYADGKTQTAEFKGTFEEATAEAYRYADLLAKEAGKYTVDVADKGYTLQIKFAGKEKTPEE
B1 gave a QB10 Dab [1] of 15.4 mg/mL and a QB10 Fab [2] of 19.3 mg/mL.

B2: Domain 4 (D4) of Peptostreptococcus magnus Protein L (protein)
chain: AQVPKEEVTIKANLIYADGKTQTAEFKGTFAEATAEAYRYADLLAKENGKYTADLEDGGYTINIRFAGKKVDEKPEEC
In the case of B2, the Sample/ref. ratio [3] is reported as 0.84 and the Retained capacity after 96 cycles (%) [4] is reported as 26%.

B3: Domain 3 (D3) of Peptostreptococcus magnus Protein L (protein)
chain: AQVPKEEVTIKANLIYADGKTQTAEFKGTFEEATAEAYRYADLLAKENGKYTVDVADKGYTLNIKFAGKEKTPEEC
For B3, the Retained capacity after 96 cycles (%) [5] was 28%, the Sample/ref. ratio [6] was 1 and the Retained capacity after 96 cycles (%) [4] was 31%. It also gave a Sample/ref. ratio [7] of 1.

B4: Domain 2 (D2) of Protein L, variant with alanine in position 31 (protein)
chain: AQVPKEEVTIKANLIYADGKTQTAEFKGTFEEAAAEAYRYADALKKDNGEYTVDVADKGYTLNIKFAGKEKTPEEC
B4 showed a Sample/ref. ratio [3] of 0.71 and a Retained capacity after 96 cycles (%) [4] of 22%.

B5: Protein L (four kappa light chain-binding domains, with additional AIHNRA sequence at the N-terminus) (protein)
chain: AIHNRAKEETPETPETDSEEEVTIKANLIFANGSTQTAEFKGTFEKATSEAYAYADTLKKDNGEYTVDVADKGYTLNIKFAGKEKTPEEPKEEVTIKANLIYADGKTQTAEFKGTFEEATAEAYRYADALKKDNGEYTVDVADKGYTLNIKFAGKEKTPEEPKEEVTIKANLIYADGKTQTAEFKGTFEEATAEAYRYADLLAKENGKYTVDVADKGYTLNIKFAGKEKTPEEPKEEVTIKANLIYADGKTQTAEFKGTFAEATAEAYRYADLLAKENGKYTADLEDGGYTINIRFAGKKVDEKPEE
In the case of B5, the Retained capacity after 100 cycles (%) [8] is reported as 23%, the Retained capacity after 96 cycles (%) [4] is reported as 28% and the Sample/ref. ratio [9] is reported as 1. The Sample/ref. ratio [10] was 1.

B6: D3(N10Q, N45A, N60Q)4 (designed binder)
chain: PKEEVTIKAQLIYADGKTQTAEFKGTFEEATAEAYRYADLLAKEAGKYTVDVADKGYTLQIKFAGKEKTPEEPKEEVTIKAQLIYADGKTQTAEFKGTFEEATAEAYRYADLLAKEAGKYTVDVADKGYTLQIKFAGKEKTPEEPKEEVTIKAQLIYADGKTQTAEFKGTFEEATAEAYRYADLLAKEAGKYTVDVADKGYTLQIKFAGKEKTPEEPKEEVTIKAQLIYADGKTQTAEFKGTFEEATAEAYRYADLLAKEAGKYTVDVADKGYTLQIKFAGKEKTPEE
Binder B6 has a QB10 Fab [11] of 19.3 mg/mL and a QB10 Dab [12] of 15.9 mg/mL.

B7: D3(N10Q, N45A, N60Q)6 (designed binder)
chain: PKEEVTIKAQLIYADGKTQTAEFKGTFEEATAEAYRYADLLAKEAGKYTVDVADKGYTLQIKFAGKEKTPEEPKEEVTIKAQLIYADGKTQTAEFKGTFEEATAEAYRYADLLAKEAGKYTVDVADKGYTLQIKFAGKEKTPEEPKEEVTIKAQLIYADGKTQTAEFKGTFEEATAEAYRYADLLAKEAGKYTVDVADKGYTLQIKFAGKEKTPEEPKEEVTIKAQLIYADGKTQTAEFKGTFEEATAEAYRYADLLAKEAGKYTVDVADKGYTLQIKFAGKEKTPEEPKEEVTIKAQLIYADGKTQTAEFKGTFEEATAEAYRYADLLAKEAGKYTVDVADKGYTLQIKFAGKEKTPEEPKEEVTIKAQLIYADGKTQTAEFKGTFEEATAEAYRYADLLAKEAGKYTVDVADKGYTLQIKFAGKEKTPEE
For B7, the QB10 Dab [13] was 16.7 mg/mL and the QB10 Fab [14] was 21.1 mg/mL.

B8: Domain 1 (D1) of Peptostreptococcus magnus Protein L (protein)
chain: AQVSEEEVTIKANLIFANGSTQTAEFKGTFEKATSEAYAYADTLKKDNGEYTVDVADKGYTLNIKFAGKEKTPEEC
Work on B8 yielded a Sample/ref. ratio [3] of 0.42 and a Retained capacity after 96 cycles (%) [4] of 13%.
